In US20170267736A1:

Molecular target: human IGF-IR expressed on recombinant NIH-3T3 cells (human) (UniProt P08069)
Assay: cell-based or functional assay

Chain of UniProt P08069 (P08069 31-1367): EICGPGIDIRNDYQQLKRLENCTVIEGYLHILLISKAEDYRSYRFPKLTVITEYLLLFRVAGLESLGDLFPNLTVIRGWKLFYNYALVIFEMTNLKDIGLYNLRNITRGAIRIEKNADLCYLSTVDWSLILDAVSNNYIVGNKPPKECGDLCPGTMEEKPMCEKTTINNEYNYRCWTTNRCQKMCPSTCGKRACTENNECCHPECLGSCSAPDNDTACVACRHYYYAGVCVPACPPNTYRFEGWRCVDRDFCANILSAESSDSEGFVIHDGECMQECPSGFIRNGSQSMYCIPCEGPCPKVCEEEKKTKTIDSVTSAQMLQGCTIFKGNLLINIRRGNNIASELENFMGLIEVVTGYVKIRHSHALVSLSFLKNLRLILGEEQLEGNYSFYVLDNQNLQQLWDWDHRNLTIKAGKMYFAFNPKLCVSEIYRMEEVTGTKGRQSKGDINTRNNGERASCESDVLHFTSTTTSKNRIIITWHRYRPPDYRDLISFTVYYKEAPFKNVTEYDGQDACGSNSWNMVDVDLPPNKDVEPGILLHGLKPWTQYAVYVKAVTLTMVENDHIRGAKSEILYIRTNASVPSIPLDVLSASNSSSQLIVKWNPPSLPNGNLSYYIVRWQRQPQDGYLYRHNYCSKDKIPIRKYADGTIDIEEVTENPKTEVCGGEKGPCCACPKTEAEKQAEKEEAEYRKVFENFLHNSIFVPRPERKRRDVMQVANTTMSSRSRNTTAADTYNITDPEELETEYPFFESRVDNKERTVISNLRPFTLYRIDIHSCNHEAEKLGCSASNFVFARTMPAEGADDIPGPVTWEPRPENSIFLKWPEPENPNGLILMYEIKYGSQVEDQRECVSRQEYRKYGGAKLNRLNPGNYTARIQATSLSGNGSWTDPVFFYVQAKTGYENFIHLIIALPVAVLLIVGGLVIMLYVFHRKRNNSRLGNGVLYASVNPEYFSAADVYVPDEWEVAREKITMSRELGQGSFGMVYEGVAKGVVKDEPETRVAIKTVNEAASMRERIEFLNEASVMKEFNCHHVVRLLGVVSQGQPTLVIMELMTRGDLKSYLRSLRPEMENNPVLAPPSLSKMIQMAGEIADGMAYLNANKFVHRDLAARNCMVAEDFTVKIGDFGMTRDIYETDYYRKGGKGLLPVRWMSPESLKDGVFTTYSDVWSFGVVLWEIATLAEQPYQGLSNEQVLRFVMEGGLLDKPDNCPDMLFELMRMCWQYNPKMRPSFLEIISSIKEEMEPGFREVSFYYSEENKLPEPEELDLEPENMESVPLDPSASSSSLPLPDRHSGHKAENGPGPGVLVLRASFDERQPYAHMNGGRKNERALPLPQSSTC

For “rhIGF-I (K27R, K65R) (from UniProt P05019 49-118) (ligand)”, the Activation of IGF-1R (phospho-IGF-IR ELISA), EC50 [nM] was 1.2 nM.
Work on “wt-rhIGF - trypsin site - Strep-Tag (ligand)” yielded an Activation of IGF-1R (phospho-IGF-IR ELISA), EC50 [nM] of 1.7 nM.
“wt-rhIGF-I - YRHAK MCa PEG20000 (from UniProt P05019 49-118) (ligand)” showed an Activation of IGF-1R (phospho-IGF-IR ELISA), EC50 [nM] of 18.4 nM.
